The nature of this data set: soluble on expression in E. coli; label from the status in PepcDB or PDB records.
Turning to “MSLNFTEDGTLPLLGSKDAKIAIIEFSDFQCPYCKRFTDSAFKQIKENYIDTGKVQYIARDFPLSFHAKAMGAAIAATCSLHQNSYWPMRDMLFSNVKDLGEELYQKAATDLSLNLEEFNKCMKDKSIANKVEQDLTLGKSLGIRGTPSFLIGRVENDQLIEPQIVVGAQRYAVFESLLEQLSNSDKAKEGHHHHHH”, the “soluble on expression in E. coli” value was “soluble”. The result for “MRVVAEDLWFPEGPVWVGDGSLLVVEIRRKTLTRIFPDGRKHIVAELGGGPNGAAMGPDGYCYVANNGGFAFRQREDGRWVTSGTPEDYRTGRIERVDIETGKVEVLYDRIDGRNIRGPNDLVIDAAGGIWFTDPGKTRHRDWDRGSICYATIDGSHIEEKVFPIHKPNGIGLSPDGRTLYVAETETARLWAWDLAGPGRLAAPAAASPASPHGSRLAYASPVYQRFDSLAVQADGAVAIGTLDRGGITTVRPDGSASFVPVAGDTHITNLCFGGEGMRKAYVTQSYAGRLVEIDWASPGLRLFEILEHHHHHH” reads “not soluble”; that for “DDAYVERRVPQEMLGGHSQGDELPIHFSRSDAFERLPQPEPIRRRLVRVGSSPVHEERMVHQQIGDLCVGDTVAHARFGIGIIESLEGEGDNAKAEVSFQQVGRKRLLLRFAKLSKVEKDSI”, “not soluble”; that for “MSLKLILNTQINTKLREIDISNETELIMSNDFPVNKIAMTGKVGYADMQGQRGTMEDALIVDSNIGIYAIFDGHGGHIVSSLSAQRIHERLQSLQNGSEFRELITQAVDSVVGELKEKKVLGGSTMCLVRVGQDKIEVANIGDSRCVAILKDGTQRQLSNDHKPTYRPEVERIREKGSFVSKGRVQGRLAVARAIGDFAVLGIESVIEFTEIDKDIVSRIVIGCDGLYDVVSNEDCLKICNENQSAVTTAYKLRDRAFQRGSTDNISVIVVDCLEGHHHHHH”, “soluble”. Turning to “MSFQLDQSTSVIKTAPPGRLEFKNEPIDIASSNIQDLAKMQTLDGYYQQTSLQLPQSQQYHRMYENVYNNQQILYAQTQNFQYPSTLLTNGSLAQTEWRGQQMDTSAYSNTGYSRSSTSQQPQYTQQVTENERIVYKPVDMPSPVDSGIGGDISILNPKEEFFTSADGGSMLERSSERTLSHRDSPLVIPKLYNNLGFQYVLEAPISTSVRRDDDRMTYVNKGQFYTVSLEYTPDLNKCLKSQTVKSQLMVVFREDKTYEEEIKTWQSWHARQHVSKQRILEIDSKNSSGMIGQIEEIGNNAVQFYWNPSDPSGVRISIAVQCLSTDFSTQKGVKGLPLHVQIDTYDGENDKVPFHRGYCQIKVFCDKGAERKLRDEDKRAQKRKVQEYTAGALPGGRKKSDGEYHDQCERSEFYHMRELDKPAALFIAPEEFEPRYVDSTSLSFDMSEIEPIPTKRPRTSERIMLYVRKRDEQIYQPLHVVPASLSGLALAIANKFGADPDKMSGVYKRCAKGITVKVDDEMLRLYCNEDTFIIDVEHATDGSTAATLIEVAPTNPNSYSNS”, the “soluble on expression in E. coli” value is reported as “not soluble”.

For the sequence “MGKKKSDTASGGAIPEGDNEKGKKIFKQRCEQCHVVNSLQTKTGPTLNGVIGRQSGQVAGFDYSAANKNKGVVWDRQTLFDYLADPKKYIPGTKMVFAGLKKADERADLIKFIEVEAAKKPSA”, the “soluble on expression in E. coli” value is listed as “not soluble”. Regarding “MAHHHHHHMAWTVHEDEYRTEGYDNLEEILQYVVHTEESVQQSKPTVKYTKSSQVFATPSPLTAAELSSPIKHQLTNTVPWQPQSHTPTNSSFHSLGIPYTSAQSPQQRRCNNRFNGSYSGQCDRKPKIMSSSETCILSPGARKRGMGTGQMDHMMATELNEMPMPELITQEVLASKDMMVGGGYSDWSGSGSKYFQSGALTADSLRGRVYETAKDQHGCRYLQRWLDTNCDPEALQVMMNEIIPHVGELMTDQYANFLIQKLFDIMPDDVRYKVAIVAAPQICMISLTPHGTFSVQKMIETISTREEMEIISEALCKDVVRLVKDAHGNHVIQKVLQRFDFDDKEYIYRAVATDCVSIAKNKQGCCVLQRCLEHASPRQKAALVDQVLACCLQIVQDPFGNYVLQYVLEEHDSKINDTIALAFLPHLVQLSMNKFSSNVMEKVLRGASGPVQVMYMEEMCNPEIISHLIQDDYGNYVLQTALTINAPVQAAQLVNVIRPFMPLIRNAPYAKKMEGKMENVARKVECNHFHAPRDCEVDARQGSSGGSPHGKFDRSPNHGRHYVGGTDQQQPYNHPT”, the “soluble on expression in E. coli” value is “not soluble”.

For “MLFCTNIAIAQGTIEDYRRAYSAGEKFSANKVSYSNVNPEWIGKTHYFWYVRNTPDGRIYVLVDADTQNRKDLFDHKLVAAALSEASGRKIEATSLYLDRLSVNNGLDTLHFVFNNHRWMYVIDKNQLTDEGALPTPRKQRHWMETDDEKTAAPVTSPDKKYTAFIKNHNIYVKETATGKEKQLSLDGTLGNYYSAYIRWSPDSKKSLPARFVR”, the “soluble on expression in E. coli” value was “not soluble”. For “NYGVDFSDIAGQSTSIRALEIAASGGHNIILYGPPGSGKTMLAKRLPTILPPLSYKEALEVSKIYSITGQFDNKNLVFKRPFRAPHHTSSKISLVGGGSKLFPGEISLSHNGVLFLDELLEFKRSSIEVLRQPLEDKVIRFSKSSGNVTYPANFMFISAMNLCPCGNYG”, the “soluble on expression in E. coli” value was “not soluble”. As for “MSLTTIKEIAQKSGYSPATVSRLLNNDPNLSITADTKNKILEIANKLGYWKDHQEKEIKPTIALLYRTNHKEQLQDEYFTSLKQALVETVKQKSMKMKTFYNVKDLIENASLFQGFIGVGAAPIENAELLELHKVLPNGVFVDTNPAPELFDSIRPNLSLTVKNAIDLFIKNDCKTIGFIGGVGPKHDHIQENDPRAVAFAEYMKVRNKDTNYMFVSGPFSVENGYELGKEVVKECEDNLPDAFLIASDTLSVGVLQAFNEENVNVPKDTAILSINNSNVVKYVSPPLSSYNINQQEMIDLALTMLTNLIIQPDRAHIDVNMNTDLVVRKSFVPKGEGHHHHHH”, the “soluble on expression in E. coli” value is “soluble”. Take “MAHHHHHHMGNTGVPSFVSTLGPPPPINLFKECQSPLTSGFSSWASFHWILLSDAFSHYYRPLECQTFYGCNFQKQLDAAANYNSFWPHHSRRLEAIRSNTPEQLCITSLHPPSRSPLTQQFPSGSFTQSPYGCRPRSLPCTAPQQWQMHRRSLQQGREHEAGRLLQQPLSFSLI”: the “soluble on expression in E. coli” value is listed as “not soluble”. Consider “MWKISKENCEDLGFAIVCMFYDAINLSEFKLWLDIVVRDIPIDTIPLYIFDLIDFDKSIGEIYDVIGVVNYGYISNDQKNALTGIAFLRGIDVYDPPISKEKALKALEKYPEIYQRFQHFFPFVELPLF”, for which the “soluble on expression in E. coli” value is listed as “not soluble”.

Regarding “MGSDKIHHHHHHMRVKHFELLTDEGKTFTHVDLYGKYTILFFFPKAGTSGCTREAVEFSRENFEKAQVVGISRDSVEALKRFKEKNDLKVTLLSDPEGILHEFFNVLENGKTVRSTFLIDRWGFVRKEWRRVKVEGHVQEVKEALDRLIEEDLSLNKHIEWRRARRALKKDRVPREELELLIKAAHLAPSCMNNQPWRFVVVDEEELLKKIHEALPGGNYWMKNAPALIAVHSKKDFDCALPDNRDYFLFDTGLAVGNLLVQATQMGLVAHPVAGYDPVKVKEILKIPEDHVLITLIAVGYLGDESELSEKHRELERSERVRKELSEIVRWNL”, the “soluble on expression in E. coli” value is “not soluble”. The result for “GSFTFSPGQDIQLIPPLINLLMSIEPDVIYAGHDNTKPDTSSSLLTSLNQLGERQLLSVVKWSKSLPGFRNLHIDDQITLIQYSWMSLMVFGLGWRSYKHVSGQMLYFAPDLILNEQRMKESSFYSLCLTMWQIPQEFVKLQVSQEEFLCMKVLLLLNTIPLEGLRSQTQFEEMRSSYIRELIKAIGLRQKGVVSSSQRFYQLTKLLDNLHDLVKQLHLYCLNTFIQSRALSVEFPEMMSEVIAAQLPKILAGMVKPLLFHKK” reads “soluble”; that for “MGSDKIHHHHHHMQRIMVIGGPGSGKSTLGRKLGARLGLPVVHMDPIYWLGDWVERDKAEAMRMAKEVADGSQWVFEGNHFASMAYRAERADLIVFLDMPRVLRMWRILWRSLRYYGRTRPDMGPNCPERFNRAFLKFCWTYDREGRLRALGFVDDWRDRRRVRILTSRRQVAAFLVEIDRQ”, “not soluble”. On to “MGSDKIHHHHHHMQSIMPEADYSFLSMDPTMNANTGNKDSLATPSHTPQLQAFCDVVESRRSVRRFTDAPIPDDVLADCLRLAMLAPNSSNLQPWEFYVIDDADKRKRAVKNCMNQNAAKTSARLIAVVARTDVWHDHAKKILREYPDMPVPKKVKDYYNKVVALDFLRGPANVVSVAKWSAIQVVRRIKGPIKSPYYTFEDTKNWATNNTALAAGNLMLALRAHGFDSCPMGGFDEPAMKRLLKLSNHHHIVMMIGAGERADNGVYNTQFRFEQDQFVHYV”, for which the “soluble on expression in E. coli” value is listed as “not soluble”. On to “MSVRATVVKRTISGGKGKISEYCDGTKAVFHYQALFPIEKHEKGQPLSLEKDAFKSIDDTRKPWPHGYGKPLEIVFGKKFQLPVFEQCLKTMLVDEISQFDVECIDLVQYPFVSKKLRDLVKPCDGKHSHAHTTHMCAASIAQGTGYEELDELMKNPRPLRFVFHLLQVFEPDQYVHDSWQLDEDDKLKSVEALRQKGNELFVQKDYKEAIDAYRDALTRLDTLILREKPGEPEWVELDRKNIPLYANMSQCYLNIGDLHEAEETSSEVLKREETNEKALFRRAKARIAAWKLDEAEEDLKLLLRNHPAAASVVAREMKIVTERRAEKKADSRVTYSKMFQP”, for which the “soluble on expression in E. coli” value is listed as “not soluble”. For “MGSDKIHHHHHHMSFYIYGILTLPAPQNLNLEGLDRQPVQIKILDDFAVIYSEAQQERYLASRRNLLSHEKVLEEIMQAGDRYLLPVQFGLLVSSWETVSQQLIRPHQEELTQLLAKLSGCREVSVKVFWDTEAEIQGLLAEHPNLKTERDKLVGQPLSMERVIQIGQVIEQGMSDRKQGIIDVFKGTLNSIAIEVVENTPQVDTMIYNSAYLIPWEAESQFSEHVESLDRQFENRLRIRYNNFTAPYNFARLRLTTSN”, the “soluble on expression in E. coli” value is “not soluble”. For the sequence “MTNWLIAYQGEPGAYSEIAALRFGEPLPCESFDDVFSAVTEQKADYAVIPIENSLGGSIHQNYDLLLRRPVVILAETFVKVEHCLLGLPGASVETATKAMSHPQALVQCHNFFATHPQIRAEAAYDTAGSAKMVAESRDKSALAIASKRAGELYGLDILKENLADEEWNITRFFCIAHENN”, the “soluble on expression in E. coli” value is on record as “not soluble”. The result for “MGSDKIHHHHHHMTYTPFFIHGEDRRSRWLITCDHATNTVPPEICGGDLGLAREDMERHIAYDVGAYEVSRLLGEMLAAPVIAANFSRLVIDPNRGEDDPTLLMKLYDGSIIPGNRHADAAERERRLNMCYRPYHDALARLAARPGVVLVSMHSFTRQLRGRAPRPWQIGVLHTADQRFSDPLIARLRGEADLCVGVNQPYTGVLPGDAIDTHCTAFGRPNALIELRNDLIGDPAGQHAWAERLAPLLQDALADSGL” reads “not soluble”; that for “GSHSLRYFVTAVSRPGHGKPRYMEVGYVDDTEFVRFDSDAENPRYEPRTPWMEQVEPEYWEGQTQIAKGNEQSSRVDLRTALRYYNQSAGGSHTIQRMRGCEVGSDGRLLRGYQQVAYDGRDYIALNEDLKTWTAADMAALITKHKWEQAGAAERDRAYLEGACVEWLRRYLELGNATLLRTDSPKAHVTHHSRPKDKVTLRCWALGFYPADITLTWQLNGEELTQDMELVETRPAGDGTFQKWASVVVPLGKEQNYTCHVYHEGLPEPLTLRW”, “soluble”. As for “MGSDKIHHHHHHMLSRIAESLFWIGRYVERADGTARILDVHLERLNHLPTEERDNVARELLAVMGARPESDEFGLEELLHALAYDKQSATSIAGSLGAARENARRARETVSSGLWESLNTTYYGLNQHRKDVVGTYRFCHWVLERTAMVSGLADTTVSHDDSWLFLALGRSLERADMTARMLSTRDVLSAGMSWVNMLRCAGAYESFLRTRRAAFGDQHAAEFLLLDRLFPRSIVYALRDADECLAKLDPSAQRVGFINDARRIVGQARTFLEFHRTDDLMSELPEHMERVQKAVSQASDAISRKYFNQADELAWVGEVS”, the “soluble on expression in E. coli” value is given as “not soluble”.

Source of the values: the DeepSol protein solubility set.
